Test [1] concerns the target aggregated recombinant human α-synuclein produced by aging (amyloid fibrils) (human) (UniProt P37840). Briefly: ELISA, α-synuclein coated at 100 pmol/well, range of peptide concentrations.
For test [2] the target is unchanged. As to the kind of experiment: ELISA, α-synuclein coated at 200 pmol/well, range of peptide concentrations.
The target in test [3] is dopamine treated recombinant human α-synuclein (soluble aggregates, oligomers) (human) (UniProt P37840). As to the kind of experiment: ELISA, α-synuclein coated, peptide in solution. For orientation: ELISA stands for enzyme-linked immunosorbent assay.

Regarding “OR1, Gd-DOTA-rGtvvaGK(biotin)-rrrrrr (peptide)”, in test [1], the lowest binding concentration detected amounted to 10 pmol/well. “OR3, Gd-DOTA-rrrrrrGtvvaGK(biotin)-r (peptide)”: the lowest binding concentration detected in test [2] was found to be 10 pmol/well. “OR2, Gd-DOTA-rGvvaGK(biotin)-rrrrrr (peptide)”: the lowest binding concentration detected in test [1] came out at 10 pmol/well. Take “OR5, Gd-DOTA-r-Sar-vva-Sar-K(biotin)-rrrrrr (peptide)”: the lowest binding concentration detected in test [3] was found to be 1 pmol/well; in test [2] it was 10 pmol/well. For “OR4, Gd-DOTA-rrrrrrGvvaGK(biotin)-r (peptide)”, the lowest binding concentration detected in test [2] was 10 pmol/well.

The values are drawn from patent US20100284934A1.
